Data taken from PMC8383480.

Molecular target: peptide probe (designed thiol-sensitive probe mimicking the substrate of the main protease)
Experiment: SPR

For “main protease of SARS-Cov-2 (from UniProt P0DTD1) (enzyme)”, the koff was 0.182 s⁻¹ and the kon was 1.03e+08 M⁻¹ s⁻¹.
